# Reference: the supplement of paper PMC9112550, “Optimization of the antimicrobial peptide Bac7 by deep mutational scanning” (BMC Biology, 2022)
# Test system: Escherichia coli TOP10
# Experiment: shrunken log2 fold change of peptide-encoding DNA abundance (4.5 h post-induction vs induction); higher = less antimicrobial activity (less host growth inhibition)
# Settings: time post-induction: 4.5 h; library: site-saturation at positions 5, 18, 19, 20
# 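Further: peptides expressed intracellularly from a pBAD plasmid library in pooled LB shake-flask culture, induced with 0.3% L-arabinose, DNA abundance read by NGS, three biological replicates, DESeq2 with apeglm shrinkage.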
row,Sequence,shrunken log2 fold change
1,RRIRDRPPRLPRPRPRPCWWPRP,0.249
2,RRIRTRPPRLPRPRPRPIQQPRP,-0.229
3,RRIRYRPPRLPRPRPRPWWPPRP,-0.254
4,RRIRFRPPRLPRPRPRPPDSPRP,0.0539
5,RRIRCRPPRLPRPRPRPPYLPRP,-0.87
6,RRIRDRPPRLPRPRPRPRVEPRP,0.137
7,RRIRCRPPRLPRPRPRPTVPPRP,0.247
8,RRIRSRPPRLPRPRPRPQPFPRP,-0.0168
9,RRIRVRPPRLPRPRPRPEWMPRP,0.0845
10,RRIRDRPPRLPRPRPRPCHWPRP,-0.00151
11,RRIRQRPPRLPRPRPRPRGFPRP,0.0677
12,RRIRNRPPRLPRPRPRPSYWPRP,-0.145
13,RRIRVRPPRLPRPRPRPNIQPRP,-0.121
14,RRIRVRPPRLPRPRPRPFVQPRP,-0.0696
15,RRIRYRPPRLPRPRPRPLCYPRP,-1
16,RRIRRRPPRLPRPRPRPMAIPRP,0.202
17,RRIRCRPPRLPRPRPRPRKNPRP,-0.00471
18,RRIRARPPRLPRPRPRPERPPRP,0.556
19,RRIRFRPPRLPRPRPRPVAGPRP,0.128
20,RRIRLRPPRLPRPRPRPEMEPRP,-0.0177
21,RRIRDRPPRLPRPRPRPYTAPRP,0.0362
22,RRIRDRPPRLPRPRPRPLLCPRP,0.503
23,RRIRERPPRLPRPRPRPGRRPRP,0.0607
24,RRIRPRPPRLPRPRPRPNVTPRP,0.209
25,RRIRNRPPRLPRPRPRPSIGPRP,-0.109
26,RRIRMRPPRLPRPRPRPMKPPRP,-0.00107
27,RRIRQRPPRLPRPRPRPSWYPRP,-0.0733
28,RRIRRRPPRLPRPRPRPCGKPRP,0.254

row,Sequence,shrunken log2 fold change
1,RRIRNRPPRLPRPRPRPEVCPRP,-0.049
2,RRIRIRPPRLPRPRPRPAFCPRP,0.167
3,RRIRPRPPRLPRPRPRPYVKPRP,-0.172
4,RRIRYRPPRLPRPRPRPQGTPRP,0.034
5,RRIRPRPPRLPRPRPRPWAQPRP,-0.00768
6,RRIRRRPPRLPRPRPRPLCRPRP,0.224
7,RRIRGRPPRLPRPRPRPEFWPRP,2.24
8,RRIRPRPPRLPRPRPRPSMGPRP,-0.156
9,RRIRQRPPRLPRPRPRPVNWPRP,0.472
10,RRIRERPPRLPRPRPRPIMEPRP,-0.465
11,RRIRYRPPRLPRPRPRPLDIPRP,-1.69
12,RRIRDRPPRLPRPRPRPQWCPRP,0.0917
13,RRIRRRPPRLPRPRPRPMFFPRP,-0.0274
14,RRIRLRPPRLPRPRPRPTQFPRP,0.192
15,RRIRPRPPRLPRPRPRPNKEPRP,-0.406
16,RRIRIRPPRLPRPRPRPWGPPRP,0.102
17,RRIRTRPPRLPRPRPRPEVYPRP,-0.00166
18,RRIRFRPPRLPRPRPRPQMAPRP,0.168
19,RRIRERPPRLPRPRPRPTWHPRP,0.358
20,RRIRTRPPRLPRPRPRPYDNPRP,-0.141
21,RRIRHRPPRLPRPRPRPWWPPRP,-0.0995
22,RRIRQRPPRLPRPRPRPGGMPRP,0.2
23,RRIRPRPPRLPRPRPRPDSKPRP,-0.238
24,RRIRKRPPRLPRPRPRPCIVPRP,-0.286
25,RRIRPRPPRLPRPRPRPKDDPRP,-0.0737
26,RRIRLRPPRLPRPRPRPYIEPRP,-0.176
27,RRIRPRPPRLPRPRPRPWGYPRP,-0.0649
